Measurements taken from paper PMC6750108, “Crystal Structure of 4-Hydroxyphenylpyruvate Dioxygenase in Complex with Substrate Reveals a New Starting Point for Herbicide Discovery” (Research, 2019).

Biological target: the molecule itself
Assay: crystal structure; AtHPPD-HPPA complex, hanging drop vapor diffusion, with CoCl2 and HPPA; reservoir 36% (w/v) PEG 400, 0.1 M NaCl, 0.1 M sodium acetate pH 5.0, 18°C; space group P 21, four molecules per asymmetric unit

B1: Arabidopsis thaliana 4-hydroxyphenylpyruvate dioxygenase (enzyme, UniProt P93836 1-445, looked up)
chain: MGHQNAAVSENQNHDDGAASSPGFKLVGFSKFVRKNPKSDKFKVKRFHHIEFWCGDATNVARRFSWGLGMRFSAKSDLSTGNMVHASYLLTSGDLRFLFTAPYSPSLSAGEIKPTTTASIPSFDHGSCRSFFSSHGLGVRAVAIEVEDAESAFSISVANGAIPSSPPIVLNEAVTIAEVKLYGDVVLRYVSYKAEDTEKSEFLPGFERVEDASSFPLDYGIRRLDHAVGNVPELGPALTYVAGFTGFHQFAEFTADDVGTAESGLNSAVLASNDEMVLLPINEPVHGTKRKSQIQTYLEHNEGAGLQHLALMSEDIFRTLREMRKRSSIGGFDFMPSPPPTYYQNLKKRVGDVLSDDQIKECEELGILVDRDDQGTLLQIFTKPLGDRPTIFIEIIQRVGCMMKDEEGKAYQSGGCGGFGKGNFSELFKSIEEYEKTLEAKQLVG
notes: 4-hydroxyphenylpyruvate dioxygenase, Arabidopsis thaliana, UniProtKB P93836, full-length protein in pET15b; Crystallised with cobalt(II) chloride and the substrate HPPA; also called AtHPPD; HPPD; source: E. coli BL21 (DE3), purified (Ni-NTA, anion exchange, size exclusion chromatography)
binding result: binds
